We go through five molecules from US20250340857A1 (SEISMIC THERAPEUTIC, published 2025).

The test addresses Human IgE antibody (human). Briefly: cell-based or functional assay.

B1: FP178 (Fc fusion)
chain: TALGRRKAEDRIKETLWADGVKIDEKDFEHIKSSHEDYFAVEYGKGSGYYDVNKKMDSEDSALCVGAVVTNMFHWWVDQNRENIEKFKKQDPENNGVMKFEGVKEATVDELNEFYRDNRDNYADQSRFFDLIKKHFGNKALNPEELFELYFNGFYYGSSHRYIEDNEPAQNNLFSKVLENNKLLNPERSYGIDGFSNNVINALKSHKVLGLVYTTPLRYRHIISMWGADIDQDGKVKAIYVTDSDDREITFNDNSKRRIGMIRYDVLVDDNGNIRFTGKGATHKEEGAIYAGLYSLSRGDEVWEDYFKKYPEVQENLDKTHTCPPCPAPEAAGAPSVFLFPPKPKDTLMISRTPEVTCVVVDVSHEDPEVKFNWYVDGVEVHNAKTKPREEQQNSTYRVVSVLTVLHQDWLNGKEYKCKVSNKALKAPIEKTISKAKGQPREPQVYTLPPSRDELTKNQVSLTCLVKGFYPSDIAVEWESNGQPENNYKTTPPVLDSDGSFFLYSKLTVDKSRWQQGNVFSCSVMHEALHNHYTQKSLSLSPG
Take B1: the “EC50 CE-SDS IgE” value came out at 2.61 nM and the “EC50 MSD IgE” value was found to be 0.317 nM.

B2: FP170 (Fc fusion)
chain 1: DKTHTCPPCPAPEAAGAPSVFLFPPKPKDTLMISRTPEVTCVVVDVSHEDPEVKFNWYVDGVEVHNAKTKPREEQQNSTYRVVSVLTVLHQDWLNGKEYKCKVSNKALKAPIEKTISKAKGQPREPQVYTLPPSRDELTKNQVSLWCLVKGFYPSDIAVEWESNGQPENNYKTTPPVLDSDGSFFLYSKLTVDKSRWQQGNVFSCSVMHEALHNHYTQKSLSLSPGGGGSGGGGSGGGGSTALGRRKAEDRIKETLWADGVKIDEKDFEHIKSSHEDYFAVEYGKGSGYYDVNKKMDSEDSALCVGAVVTNMFHWWVDQNRENIEKFKKQDPENNGVMKFEGVKEATVDELNEFYRDNRDNYADQSRFFDLIKKHFGNKALNPEELFELYFNGFYYGSSHRYIEDNEPAQNNLFSKVLENNKLLNPERSYGIDGFSNNVINALKSHKVLGLVYTTPLRYRHIISMWGADIDQDGKVKAIYVTDSDDREITFNDNSKRRIGMIRYDVLVDDNGNIRFTGKGATHKEEGAIYAGLYSLSRGDEVWEDYFKKYPEVQENL
chain 2: DKTHTCPPCPAPEAAGAPSVFLFPPKPKDTLMISRTPEVTCVVVDVSHEDPEVKFNWYVDGVEVHNAKTKPREEQQNSTYRVVSVLTVLHQDWLNGKEYKCKVSNKALKAPIEKTISKAKGQPREPQVYTLPPSRDELTKNQVSLSCAVKGFYPSDIAVEWESNGQPENNYKTTPPVLDSDGSFFLVSKLTVDKSRWQQGNVFSCSVMHEALHNHYTQKSLSLSPG
On to B2, for which the “EC50 CE-SDS IgE” value is 14.6 nM and the “EC50 MSD IgE” value worked out at 1.02 nM.

B3: FP174 (Fc fusion)
chain 1: DKTHTCPPCPAPEAAGAPSVFLFPPKPKDTLMISRTPEVTCVVVDVSHEDPEVKFNWYVDGVEVHNAKTKPREEQQNSTYRVVSVLTVLHQDWLNGKEYKCKVSNKALKAPIEKTISKAKGQPREPQVYTLPPSRDELTKNQVSLWCLVKGFYPSDIAVEWESNGQPENNYKTTPPVLDSDGSFFLYSKLTVDKSRWQQGNVFSCSVMHEALHNHYTQKSLSLSPGGSSAPGSSAPGSSAPTALGRRKAEDRIKETLWADGVKIDEKDFEHIKSSHEDYFAVEYGKGSGYYDVNKKMDSEDSALCVGAVVTNMFHWWVDQNRENIEKFKKQDPENNGVMKFEGVKEATVDELNEFYRDNRDNYADQSRFFDLIKKHFGNKALNPEELFELYFNGFYYGSSHRYIEDNEPAQNNLFSKVLENNKLLNPERSYGIDGFSNNVINALKSHKVLGLVYTTPLRYRHIISMWGADIDQDGKVKAIYVTDSDDREITFNDNSKRRIGMIRYDVLVDDNGNIRFTGKGATHKEEGAIYAGLYSLSRGDEVWEDYFKKYPEVQENL
chain 2: DKTHTCPPCPAPEAAGAPSVFLFPPKPKDTLMISRTPEVTCVVVDVSHEDPEVKFNWYVDGVEVHNAKTKPREEQQNSTYRVVSVLTVLHQDWLNGKEYKCKVSNKALKAPIEKTISKAKGQPREPQVYTLPPSRDELTKNQVSLSCAVKGFYPSDIAVEWESNGQPENNYKTTPPVLDSDGSFFLVSKLTVDKSRWQQGNVFSCSVMHEALHNHYTQKSLSLSPG
Regarding B3, the “EC50 CE-SDS IgE” value stood at 12.2 nM and the “EC50 MSD IgE” value stood at 0.511 nM.

B4: FP175 (Fc fusion)
chain 1: DKTHTCPPCPAPEAAGAPSVFLFPPKPKDTLMISRTPEVTCVVVDVSHEDPEVKFNWYVDGVEVHNAKTKPREEQQNSTYRVVSVLTVLHQDWLNGKEYKCKVSNKALKAPIEKTISKAKGQPREPQVYTLPPSRDELTKNQVSLWCLVKGFYPSDIAVEWESNGQPENNYKTTPPVLDSDGSFFLYSKLTVDKSRWQQGNVFSCSVLHEALHSHYTQKSLSLSPGGSSAPGSSAPGSSAPTALGRRKAEDRIKETLWADGVKIDEKDFEHIKSSHEDYFAVEYGKGSGYYDVNKKMDSEDSALCVGAVVTNMFHWWVDQNRENIEKFKKQDPENNGVMKFEGVKEATVDELNEFYRDNRDNYADQSRFFDLIKKHFGNKALNPEELFELYFNGFYYGSSHRYIEDNEPAQNNLFSKVLENNKLLNPERSYGIDGFSNNVINALKSHKVLGLVYTTPLRYRHIISMWGADIDQDGKVKAIYVTDSDDREITFNDNSKRRIGMIRYDVLVDDNGNIRFTGKGATHKEEGAIYAGLYSLSRGDEVWEDYFKKYPEVQENL
chain 2: DKTHTCPPCPAPEAAGAPSVFLFPPKPKDTLMISRTPEVTCVVVDVSHEDPEVKFNWYVDGVEVHNAKTKPREEQQNSTYRVVSVLTVLHQDWLNGKEYKCKVSNKALKAPIEKTISKAKGQPREPQVYTLPPSRDELTKNQVSLSCAVKGFYPSDIAVEWESNGQPENNYKTTPPVLDSDGSFFLVSKLTVDKSRWQQGNVFSCSVLHEALHSHYTQKSLSLSPG
For B4, the “EC50 CE-SDS IgE” value was 179 nM and the “EC50 MSD IgE” value came to 1.88 nM.

B5: FP171 (Fc fusion)
chain 1: DKTHTCPPCPAPEAAGAPSVFLFPPKPKDTLMISRTPEVTCVVVDVSHEDPEVKFNWYVDGVEVHNAKTKPREEQQNSTYRVVSVLTVLHQDWLNGKEYKCKVSNKALKAPIEKTISKAKGQPREPQVYTLPPSRDELTKNQVSLWCLVKGFYPSDIAVEWESNGQPENNYKTTPPVLDSDGSFFLYSKLTVDKSRWQQGNVFSCSVLHEALHSHYTQKSLSLSPGGGGSGGGGSGGGGSTALGRRKAEDRIKETLWADGVKIDEKDFEHIKSSHEDYFAVEYGKGSGYYDVNKKMDSEDSALCVGAVVTNMFHWWVDQNRENIEKFKKQDPENNGVMKFEGVKEATVDELNEFYRDNRDNYADQSRFFDLIKKHFGNKALNPEELFELYFNGFYYGSSHRYIEDNEPAQNNLFSKVLENNKLLNPERSYGIDGFSNNVINALKSHKVLGLVYTTPLRYRHIISMWGADIDQDGKVKAIYVTDSDDREITFNDNSKRRIGMIRYDVLVDDNGNIRFTGKGATHKEEGAIYAGLYSLSRGDEVWEDYFKKYPEVQENL
chain 2: DKTHTCPPCPAPEAAGAPSVFLFPPKPKDTLMISRTPEVTCVVVDVSHEDPEVKFNWYVDGVEVHNAKTKPREEQQNSTYRVVSVLTVLHQDWLNGKEYKCKVSNKALKAPIEKTISKAKGQPREPQVYTLPPSRDELTKNQVSLSCAVKGFYPSDIAVEWESNGQPENNYKTTPPVLDSDGSFFLVSKLTVDKSRWQQGNVFSCSVLHEALHSHYTQKSLSLSPG
B5: the “EC50 CE-SDS IgE” value is 17.8 nM and the “EC50 MSD IgE” value amounted to 1.35 nM.
